In publication PMC10771423, “Discovery and biochemical characterization of thermostable glycerol oxidases” (Applied Microbiology and Biotechnology, 2024):

B1: AldOCh (Thermostaphylospora chromogena) (protein)
chain: MSPTLTNWAGNIVFRAGEVHRPETLEELRTLVTRADKVRVLGSGHSFNDIADSPGVLVSPSRLPRELELDTAAGAVRVSAGIRYAELSAWLHERGFALHNLASLPHISVAGSCATATHGSGDGNGNLATAVRALTLVTAEGDLVDLDRERDGDRFRGAVVGLGALGVVVSMTLDVEPTFEVRQRVYEDLPLEAACDHFSDIMGCAYSVSMFSDWTSSRINQVWVKERVDEDGSRPPGPASFGAKPADGPRHPIARMPAGNCTEQLGVPGPWFARLPHFRPEFTPSGGQERQAEYLVPRRHAVAALRELAAIGDRIAPVLQISEIRTIAADDLWLSPCQGRDTVGFHFTLIPDTAAVLPVLELIEERLAPFEARPHWGKLFTTPPAVLRSRYDRLPDFQALARDLDPGGKFANEFISRNLLDA
B2: AldOAb (Actinomycetota bacterium) (protein)
chain: MTMRSTNWAGNVVYRASELHRPASLDELRRVVARSPKVRVLGSGHSFNEITDTEGALVSLEALPPEVEIDRATGTARVAAGLRYGELSARLHAAGYALPNLASLPHICVAGACATGTHGSGDGIGGLAGSVTAVELVTADGDLVTLSRDADPDRFPGAVVSLGALGAVVTMTLRLEPAFQVRQRVYENLPAEALDDHFDEIMASGYSVSLFTDWRGDRIRQVWVKERVGDPAAGGEEREPVVAALGATPADGPRHPVPGMPAANCTEQLGVPGPWHERLPHFRLGFTPSSGDELQAEYLLPRRHAVAAFHALAGIADRIAPVLHISEIRTVAADDLWLSPFHGRNTVAFHFTWKPDEAAVREVLSLMEEVLAPFEPRPHWGKLFAIPPKVLRSRYDRIGDFRALARELDPSGKFANAFVAHHVLDDE
B3: AldOTf (Thermopolyspora flexuosa) (protein)
chain: MRSTNWAGNVVFRASELHRPASIDELRRVVARSPKVRVLGSGHSFNEITDTDGTLVSLDALPPEVEIDGATGTARISAGLRYGELSRRLHAAGHALANLASLPHICVAGACATGTHGSGDGNGGLATSVTAVELVTGEGDLVTLSRDADPDRFPGAVVSLGALGVVVAMTLRLVPAFEVRQRVYENLPAEALAGHFDEIMASGYSVSLFTDWRGDRISQVWVKERVDASSGAPGDEREPVVAALGATPADGPRHPVPGMPAVNCTEQLGVPGPWFERLPHFRPEFTPSSGDELQAEYLLPRRHAVAAFQALAGIADRIAPVLHISEIRTVAADDLWLSPFHGRDTVAFHFTWKRDEAAVLDVLGLMEDVLAPFEPRPHWGKLFTIPPKVLHSRYDRMADFRALARELDPAGKFANAFVARHVLEIE

Tests used:
purified protein [1] = substrate: OC[C@@H](O)[C@H](O)[C@@H](O)CO; assay: purified protein; conditions: 50 mM KPi pH 7.5, 25 °C, O2 as co-substrate
purified protein [2] = substrate: OCC(O)CO; assay: purified protein; conditions: 50 mM KPi pH 7.5, 25 °C, O2 as co-substrate

| Protein | Km (purified protein [1]) | kcat (purified protein [1]) | kcat/Km (purified protein [1]) | Km (purified protein [2]) | kcat (purified protein [2]) | kcat/Km (purified protein [2]) |
| --- | --- | --- | --- | --- | --- | --- |
| B1 | 40 µM | 3.5 s⁻¹ | 120000 M⁻¹ s⁻¹ |  |  |  |
| B2 | 30 µM | 4.2 s⁻¹ | 140000 M⁻¹ s⁻¹ |  |  |  |
| B3 | 30 µM | 3.1 s⁻¹ | 100000 M⁻¹ s⁻¹ | 50000 µM | 1.6 s⁻¹ | 32 M⁻¹ s⁻¹ |
